Residue numbers refer to the chain shown, from its start. Values joined by “and” are separate entries in the source; they are usually repeats but may differ in a detail not shown here. Identical values can stand only once. Like-named read-outs stand apart in the source and are kept apart here.
Legend:
cyno BMP9 (mature) [1] = biological target: T1, cyno BMP9 (mature) (cynomolgus monkey, UniProt G7PEU8 320-429); experiment: cell-based or functional assay
T1 sequence: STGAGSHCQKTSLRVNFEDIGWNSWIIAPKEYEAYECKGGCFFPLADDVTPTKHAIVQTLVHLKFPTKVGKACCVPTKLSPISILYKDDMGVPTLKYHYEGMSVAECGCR

rat BMP9 (mature) [2] = biological target: T2, rat BMP9 (mature) (rat, UniProt M0RB87 320-430, Chemically biotinylated for capture on the SPR chip; sites not stated. Natural mature BMP9 is a disulfide-linked homodimer; one monomer chain is given.); experiment: cell-based or functional assay
T2 sequence: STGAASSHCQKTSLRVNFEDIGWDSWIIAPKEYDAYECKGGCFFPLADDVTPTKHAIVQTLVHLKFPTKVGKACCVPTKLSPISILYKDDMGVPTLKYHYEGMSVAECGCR

human mature BMP9 [3] = biological target: T3, human mature BMP9 (human, UniProt Q9UK05 320-429); experiment: cell-based or functional assay
T3 sequence: T1 sequence with T2A, N23D, I84V

human mature BMP9 [4] = biological target: T3, human mature BMP9; experiment: cell-based or functional assay; remark: listed apart in the source
human mature BMP9 [5] = biological target: T3, human mature BMP9; experiment: cell-based or functional assay; remark: listed apart in the source
human mature BMP9 [6] = biological target: T3, human mature BMP9; experiment: cell-based or functional assay; remark: listed apart in the source
human mature BMP9 [7] = biological target: T3, human mature BMP9; experiment: cell-based or functional assay; remark: listed apart in the source
human mature BMP9 [8] = biological target: T3, human mature BMP9; experiment: cell-based or functional assay; remark: listed apart in the source
cyno BMP9 (mature) [9] = biological target: T1, cyno BMP9 (mature); experiment: cell-based or functional assay; remark: listed apart in the source
cyno BMP9 (mature) [10] = biological target: T1, cyno BMP9 (mature); experiment: cell-based or functional assay; remark: listed apart in the source
rat BMP9 (mature) [11] = biological target: T2, rat BMP9 (mature); experiment: cell-based or functional assay; remark: listed apart in the source
rat BMP9 (mature) [12] = biological target: T2, rat BMP9 (mature); experiment: cell-based or functional assay; remark: listed apart in the source
human mature BMP9 [13] = biological target: T3, human mature BMP9; experiment: cell-based or functional assay; remark: listed apart in the source
cyno BMP9 (mature) [14] = biological target: T1, cyno BMP9 (mature); experiment: cell-based or functional assay; remark: listed apart in the source
rat BMP9 (mature) [15] = biological target: T2, rat BMP9 (mature); experiment: cell-based or functional assay; remark: listed apart in the source
human mature BMP9 [16] = biological target: T3, human mature BMP9; experiment: method not stated (legend of the crystal structure figure)
human mature BMP9 [17] = biological target: T3, human mature BMP9; experiment: competition ELISA: antibody mixed with 0.6 nM BMP9-biotin, binding to coated BMPRII (1 µg/ml) detected
Description: For competition ELISAs, each receptor protein was coated on a 384-well ELISA plate at its optimal coating concentration, 20 μl/well in PBS-CMF at 4° C. overnight. The next day, plates were washed 3 times with PBS+0.05% TWEEN™ 20 and blocked with PBS+1% BSA for 1 hr at RT with shaking. Anti-BMP9 Abs were serially diluted 3-fold in PBS+1% BSA, starting from 100 nM, then mixed with the same volume of the optimal concentration of biotinylated BMP9. The final concentration of biotinylated BMP9 corresponded to the EC₉₀ for each receptor, as determined in a preliminary experiment described above.
Serially diluted Abs were incubated with biotinylated BMP9 for at least 15 min at RT. Plates were washed as before, followed by addition of serially diluted Abs and the biotinylated BMP9 mixture. After incubating for 1 hr at RT, plates were washed 3 times with PBS+0.05% TWEEN™ 20. Secondary antibody was added (HRP-Streptavidin from BioLegend, cat #405210, 1:2000), followed by 1 hr incubation at RT. Plates were washed as before, signal was developed using TMB substrate, and the reaction stopped with 0.18 M H₂SO₄. Absorbance was read at 450 nm on an ENVISION® plate reader (Perkin Elmer).

- IC50, inhibition of BMP9-induced phospho-SMAD2 nuclear translocation in endothelial cells (cyno BMP9 (mature) [1]): 0.027 to 0.042 nM
- IC50, inhibition of BMP9-induced phospho-SMAD2 nuclear translocation in endothelial cells (rat BMP9 (mature) [2]): 0.465 nM and 1 nM
- IC50 (read off the curve): BMP9-induced pSMAD1/5/9 nuclear translocation, TIME cells (human mature BMP9 [3]): ~30 pM
- IC50 (read off the curve): BMP9-induced pSMAD2 nuclear translocation, TIME cells (human mature BMP9 [4]): ~40 pM
- IC50 (read off the curve): BMP9-induced pSMAD1/5/9 nuclear translocation, TIME cells (human mature BMP9 [5]): ~30 pM
- IC50 (read off the curve): BMP9-induced pSMAD2 nuclear translocation, TIME cells (human mature BMP9 [6]): ~40 pM
- IC50 (read off the curve): BMP9-induced pSMAD1/5/9 nuclear translocation, HPAEC (human mature BMP9 [7]): ~40 pM
- IC50 (read off the curve): BMP9-induced pSMAD2 nuclear translocation, HPAEC (human mature BMP9 [8]): ~30 pM
- IC50 (read off the curve): BMP9-induced pSMAD1/5/9 nuclear translocation, cynomolgus monkey PAEC (cyno BMP9 (mature) [9]): ~20 pM
- IC50 (read off the curve): BMP9-induced pSMAD2 nuclear translocation, cynomolgus monkey PAEC (cyno BMP9 (mature) [10]): 16 to 30 pM
- IC50 (read off the curve): BMP9-induced pSMAD1/5/9 nuclear translocation, rat LSEC (rat BMP9 (mature) [11]): ~0.3 nM
- IC50 (read off the curve): BMP9-induced pSMAD2 nuclear translocation, rat LSEC (rat BMP9 (mature) [12]): ~0.5 nM
- IC50 (read off the curve): Human BMP9-induced pSMAD1/5/9 nuclear translocation, TIME cells (human mature BMP9 [13]): ~0.1 nM
- IC50 (read off the curve): Cyno BMP9-induced pSMAD1/5/9 nuclear translocation, TIME cells (cyno BMP9 (mature) [14]): ~0.1 nM
- IC50 (read off the curve): Rat BMP9-induced pSMAD1/5/9 nuclear translocation, TIME cells (rat BMP9 (mature) [15]): ~0.1 nM
- fold increase in binding affinity relative to Ab93 (human mature BMP9 [16]): ~20 fold
- IC50 (read off the curve) (human mature BMP9 [17]): ~0.3 nM
B1: Ab1076 (antibody, human IgG1, lambda, V domains shown)
VH: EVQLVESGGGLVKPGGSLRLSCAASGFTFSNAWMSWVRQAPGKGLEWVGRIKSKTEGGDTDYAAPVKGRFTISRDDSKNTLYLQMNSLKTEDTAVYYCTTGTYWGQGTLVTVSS
VL: QSVLTQPPSASGTPGQRVTISCSVTNTDIDIFNVHWYQQLPGTAPKLLFFHDYRPSGVSDRFSGSKSGTSASLAIVGLQSEDEGYYYCAGLDEAMRGPVFGGGTKLTVLG
notes: The heavy chain can be prepared with or without the C-terminal lysine
